Assay results taken from US20050084493A1 (Amgen, published 2005).

B1: MAB201 murine monoclonal anti-IL-1β antibody (R&D Systems) (antibody, V domains shown)
VH: QVTLKESGPGILKPSQTLSLTCSFSGFSLSTSGMGVGWIRQPSGKGLEWLAHIWWDGDESYNPSLKTRLTISKNTSRNQVFLKITTVDTVDTATYFCARNRYDPPWFVDWGQGTLVTVSS
VL: DIQMTQTTSSLSASLGDRVTISCRASQDISNYLSWYQQKPDGTVKLLIYYTSKLHSGVPSRFSGSGSGTDYFLTISNLEQEDIATYFCLQGKMLPWTFGGGTKLEIK
notes: Commercial murine monoclonal; light chain is kappa; also called Mouse; mouse monoclonal MAB201

Assays:
[1] = target: IL-1 receptor type I (IL-1R1) on SW982 synoviocytes / HUVEC (human) (UniProt P14778); assay: cell-based or functional assay
IL-1β [2] = target: T1, IL-1β (Homo sapiens (Human), UniProt P01584 117-269); assay: cell-based or functional assay
IL-1β [3] = target: T1, IL-1β; assay: ECL (Origen) competition of complex formation: antibody titrated against biotinylated sIL-1 receptor (1 nM), IL-1β (1 nM), ruthenium-tagged IL-1RacP (5 nM)
Experimental: The resulting complexes were captured using magnetic streptavidin-coated beads and an Origen® Analyzer (IGEN Inc.) measured an ECL signal proportional to the ruthenium tag captured in the complex to evaluate competition of complex formation.
After a 1-hour incubation, the resulting complexes were captured using magnetic streptavidin-coated beads. Competition of complex formation was evaluated using an Origen® Analyzer (IGEN Inc.), which measures an ECL signal proportional to the ruthenium tag captured in the complex.

Chain of IL-1 receptor type I (IL-1R1) on SW982 synoviocytes / HUVEC (human) (P14778 18-569): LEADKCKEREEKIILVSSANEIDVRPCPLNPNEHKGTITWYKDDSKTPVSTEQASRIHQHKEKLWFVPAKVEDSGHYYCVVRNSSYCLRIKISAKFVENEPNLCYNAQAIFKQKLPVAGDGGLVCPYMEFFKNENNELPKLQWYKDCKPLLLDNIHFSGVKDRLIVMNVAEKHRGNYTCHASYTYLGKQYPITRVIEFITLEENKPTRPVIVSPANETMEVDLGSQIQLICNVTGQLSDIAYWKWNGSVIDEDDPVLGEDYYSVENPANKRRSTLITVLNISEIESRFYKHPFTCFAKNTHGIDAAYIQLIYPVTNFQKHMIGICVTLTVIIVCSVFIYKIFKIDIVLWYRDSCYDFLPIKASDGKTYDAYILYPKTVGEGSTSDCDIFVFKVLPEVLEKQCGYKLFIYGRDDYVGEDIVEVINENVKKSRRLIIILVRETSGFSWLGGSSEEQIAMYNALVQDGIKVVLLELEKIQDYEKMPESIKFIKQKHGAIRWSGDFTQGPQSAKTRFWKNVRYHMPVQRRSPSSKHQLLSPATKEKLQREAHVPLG

Molecule	IC50 (pM), IL-1β-dependent GROα production in HUVEC [1] [pM]	IC50 (pM), IL-1β-dependent GROα production in HUVEC (IL-1β [2]) [pM]	IC50 (IL-1β [3]) [nM]
IL-1ra (from UniProt P18510 26-177) (ligand)	2930	–	–
B1	–	171	0.476
